According to patent US9017951B2, “Anti-FcRH5 antibodies and immunoconjugates and methods of use” (Genentech, Inc., priority 2009, dated 2015):

Key:
cynomolgus FcRH5 = test: Cyno X-reactivity (FACS) on stable transfected cells; format: binding; conditions: SVT2 cells stably expressing cynoFcRH5; 1.0, 0.1 or 0.01 ug Ab per million cells
Description: For additional FACS analysis of FcRH5 antibodies, 1.0 μg, 0.1 μg or 0.01 μg of antibody was titrated per million cells of BJAB cells stably expressing huFcRH5 and SVT2 cells stably expressing cynoFcRH5. Briefly, approximately 10^6 cells in 100 μl were incubated with varying amounts (1.0 ug, 01. ug or 0.01 ug) of murine Ab (‘mu1H4, mu4D10, mu6H1, mu7D11, mu9E2, mu10A8, mu140F5, or mu13G9) per million cells of BJAB cells stably expressing huFcRH5 and SVT2 cells stably expressing cynoFcRH5. Incubation with 1.0 ug/10^6 cells of the appropriate Mu IgG isotype control was used as a negative control. PE conjugated Rat anti-MuIgG1 or Rat anti-MuIgG2a+b was used as the secondary detection antibody.

human FcRH5 = target: T1, human FcRH5 (Homo sapiens, UniProt Q96RD9); test: Affinity determination (Scatchard analysis), cells expressing human FcRH5; format: binding; conditions: FACS and Scatchard analysis
T1 construct: expressed in transfected cells; host or cells: OPM2 multiple myeloma line per text
T1 sequence (Q96RD9 16-977 Y267H/G418D/V466I/L733P/S890P): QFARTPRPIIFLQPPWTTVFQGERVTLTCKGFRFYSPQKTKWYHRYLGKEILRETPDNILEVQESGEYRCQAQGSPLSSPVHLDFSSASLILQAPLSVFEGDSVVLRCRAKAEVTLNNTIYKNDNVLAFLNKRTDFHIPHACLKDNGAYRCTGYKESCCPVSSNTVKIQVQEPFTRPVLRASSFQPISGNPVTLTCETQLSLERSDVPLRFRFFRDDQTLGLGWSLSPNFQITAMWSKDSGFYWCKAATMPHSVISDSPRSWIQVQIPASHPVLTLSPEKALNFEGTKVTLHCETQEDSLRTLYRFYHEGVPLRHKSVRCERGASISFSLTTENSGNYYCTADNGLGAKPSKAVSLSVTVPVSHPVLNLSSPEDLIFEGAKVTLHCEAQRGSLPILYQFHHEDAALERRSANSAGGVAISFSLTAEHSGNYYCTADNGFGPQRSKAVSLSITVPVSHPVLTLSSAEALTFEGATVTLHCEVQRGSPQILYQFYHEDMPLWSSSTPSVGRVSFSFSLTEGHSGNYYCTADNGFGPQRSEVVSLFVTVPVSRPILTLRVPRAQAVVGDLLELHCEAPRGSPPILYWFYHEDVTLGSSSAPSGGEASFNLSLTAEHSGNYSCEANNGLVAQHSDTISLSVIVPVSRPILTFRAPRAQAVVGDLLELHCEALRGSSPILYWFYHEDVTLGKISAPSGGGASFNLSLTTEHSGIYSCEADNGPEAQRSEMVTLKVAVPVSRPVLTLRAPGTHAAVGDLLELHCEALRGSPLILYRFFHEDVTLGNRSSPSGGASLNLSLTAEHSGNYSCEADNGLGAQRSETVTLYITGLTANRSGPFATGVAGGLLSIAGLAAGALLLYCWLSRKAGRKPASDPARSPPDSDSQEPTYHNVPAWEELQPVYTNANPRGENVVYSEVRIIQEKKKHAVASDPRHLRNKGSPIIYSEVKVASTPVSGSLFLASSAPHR
Description: To further determine binding of the FcRH5 murine antibodies and IgG clones, binding of iodinated IgG variants to OPM2 cells expressing human FcRH5 and SVT2 cells expressing cynomologous FcRH5, Scatchard analysis was performed (Table 9A).
After a four hour incubation at 4° C., cells were washed and cell pellet counts were read by a gamma counter (1470 WIZARD Automatic Gamma Counter; Perkin Elmer, Walthem, Mass.). All points were done in triplicate and counted for 10 minutes. The average CPM was used for Kd calculation using the New Ligand (Genentech, South San Francisco, Calif.) program.

cynomolgus FcRH5, sequence (as listed by the source): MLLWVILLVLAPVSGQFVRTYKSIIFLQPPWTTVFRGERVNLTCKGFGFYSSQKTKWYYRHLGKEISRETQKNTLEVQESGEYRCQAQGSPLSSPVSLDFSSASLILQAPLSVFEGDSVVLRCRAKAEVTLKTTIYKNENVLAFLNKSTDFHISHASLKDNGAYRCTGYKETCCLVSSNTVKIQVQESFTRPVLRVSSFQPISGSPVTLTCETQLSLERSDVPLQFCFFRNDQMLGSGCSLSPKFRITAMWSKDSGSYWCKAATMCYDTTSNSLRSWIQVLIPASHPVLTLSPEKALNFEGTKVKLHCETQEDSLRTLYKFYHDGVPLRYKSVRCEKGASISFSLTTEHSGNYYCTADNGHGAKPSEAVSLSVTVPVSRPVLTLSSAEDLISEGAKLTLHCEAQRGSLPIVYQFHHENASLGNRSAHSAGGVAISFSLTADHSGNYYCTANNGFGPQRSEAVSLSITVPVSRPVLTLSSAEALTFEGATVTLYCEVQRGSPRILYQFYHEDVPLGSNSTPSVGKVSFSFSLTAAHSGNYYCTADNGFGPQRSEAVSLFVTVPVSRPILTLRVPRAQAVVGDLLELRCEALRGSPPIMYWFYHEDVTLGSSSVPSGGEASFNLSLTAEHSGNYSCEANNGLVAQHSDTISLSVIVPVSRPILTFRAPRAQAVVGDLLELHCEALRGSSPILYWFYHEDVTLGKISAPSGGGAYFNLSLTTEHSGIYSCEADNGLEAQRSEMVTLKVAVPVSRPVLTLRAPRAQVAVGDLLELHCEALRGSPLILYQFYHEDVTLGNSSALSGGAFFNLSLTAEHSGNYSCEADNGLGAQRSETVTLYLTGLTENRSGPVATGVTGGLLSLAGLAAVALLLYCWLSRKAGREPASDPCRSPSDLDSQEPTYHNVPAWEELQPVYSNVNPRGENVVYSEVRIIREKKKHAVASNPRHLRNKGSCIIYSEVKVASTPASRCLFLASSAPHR

B1: 13G9: murine monoclonal antibody binding human FcRH5; variable chains SEQ ID NO: 18 and 20 (antibody, listed as Mus sp., V domains shown)
VL: DIVMTQSQKIMSTSVGDRVNVTCKASQNVGSNVAWYHQKPGQSPKALIYSASYRYSGVPDRFTGSGSGTDFTLTISNVQSEDLAEYFCQQYKTWTFGGGTKLEIKR
VH: EVQLVQSGPELKKPGETVKISCKASGYTFTNYGMNWVKQAPGKGLKWMGWVNTYTGEPTYTDDFKGRFAFSVETSASTVFLQINNLKNEDTATYFCARRSIPYYYAMDYWGQGTSLT
With B1 the “Cross reactivity with cynomolgus FcRH5 by FACS analysis” value (cynomolgus FcRH5) was “cross react with cynomolgus FcRH5”.

B2: hu13G9.1a: humanized 13G9 version 1; VL SEQ ID NO: 19, VH SEQ ID NO: 21 (antibody, V domains shown)
VH: EVQLVQSGGGLVQPGGSLRLSCAASGYTFTNYGMNWVRQAPGKGLEWVGWVNTYTGEPTYTDDFKGRFTFSVDTSKSTVYLQMNSLRAEDTAVYYCARRSIPYYYAMDYWGQGTLVTVS
VL: DIQMTQSPSSLSASVGDRVTITCKASQNVGSNVAWYQQKPGKAPKALIYSASYRYSGVPSRFSGSGSGTDFTLTISSLQPEDFATYYCQQYKTWTFGQGTKVEIKR
For B2, the “Binding to cells expressing FcRH5 compared with the chimera” value (human FcRH5) was “essentially equivalent to the chimera”.
